Test results as given in the supplement of paper PMC9732359.
± gives the uncertainty stated by the source.

Assay: protein stability index of a GFP-peptide fusion (yeast GPS) (PSI 1-4); higher = more stable; sorted into four equal gates, so the index is relative within each strain
How it was run: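 Yeast carrying a pooled library were grown to mid-log phase in leucine-free medium. Each library plasmid expresses Cherry and has a tiled 17-residue yeast protein peptide fused downstream of GFP. Cells were sorted into four equal gates by GFP/Cherry ratio, and plasmids from each gate were PCR-amplified, Illumina-sequenced and assigned to strains by barcode. Summing, across gates, the read frequency times the gate number gave each peptide's protein stability index.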

Row | Sequence | protein stability index (san1∆) | protein stability index (doa10∆) | protein stability index (pdr5∆) | protein stability index (ubr1∆)
1 | VKGKNCVVLGCERRSTL [PRE6] | 2.84 ± 0.23 |  |  | 
2 | VKIGKFIPHGLKRRQVI [SRB8] | 3.11 ± 0.06 | 2.48 ± 0.1 | 2.23 ± 0.075 | 1.95 ± 0.078
3 | VKIRATGGTRTKTPGPG [RPS14A] | 2.72 ± 0.14 | 3.21 ± 0.25 | 3.08 ± 0.16 | 3.33 ± 0.21
4 | VKKILPLYARYINVNPQ [ECM29] | 3.06 ± 0.051 | 2.43 ± 0.056 | 2.15 ± 0.051 | 2.72 ± 0.04
5 | VKKPQKSKTSTGKERSK [SNM1] | 3.549 ± 0.035 | 3.15 ± 0.07 | 3.39 ± 0.085 | 3.35 ± 0.062
6 | VKKTGENEISSLLAMHK [CDC53] | 2.05 ± 0.3 | 2.75 ± 0.3 | 2.54 ± 0.12 | 2.87 ± 0.25
7 | VKKVQLGKKGVPYVVTH [RPS4A] | 3.06 ± 0.064 | 1.77 ± 0.098 | 2.07 ± 0.13 | 2.04 ± 0.071
8 | VKKVVKEQTEAAKKSEK [RPL34A] | 3.19 ± 0.038 | 3.37 ± 0.14 | 3.4 ± 0.1 | 3.31 ± 0.076
9 | VKLIVMLCTLTGYQNND [YJL039C/NUP192] | 1.29 ± 0.17 | 1.89 ± 0.12 | 1.25 ± 0.078 | 1.25 ± 0.098
10 | VKVARLAGKYIPNLTAK [FAS1] |  | 3.34 ± 0.25 | 2.58 ± 0.22 | 3.03 ± 0.14
11 | VKWYHFDHNDKKLSINS [PRE7] | 2.15 ± 0.082 | 2.51 ± 0.086 | 2.38 ± 0.063 | 2.48 ± 0.1
12 | VKYASPNLNMKYRKRQL [FAS2] | 3.02 ± 0.093 | 3.6 ± 0.14 | 3.19 ± 0.09 | 2.88 ± 0.068
13 | VKYMPEQKITEIEDGQD [RPO21] | 2.98 ± 0.098 | 3.19 ± 0.12 | 3.12 ± 0.099 | 3.19 ± 0.069
14 | VLCTRLRLSNFFTIDHF [SIR2] | 1.5 ± 0.097 | 2.19 ± 0.064 | 1.5 ± 0.057 | 1.28 ± 0.033
15 | VLDSMTKEELESDGRMF [SRP54] | 3.37 ± 0.051 | 3.02 ± 0.088 | 3.2 ± 0.089 | 2.27 ± 0.059
16 | VLIDLLNWFRTTNMNVN [RGR1] | 3.19 ± 0.096 | 2.9 ± 0.11 | 1.66 ± 0.068 | 1.92 ± 0.093
17 | VLILLHAERDLALAETL [SRP68] | 2.96 ± 0.058 | 2.3 ± 0.06 | 3.04 ± 0.089 | 3.11 ± 0.057
18 | VLKFAAHTGATPIAGRF [RPS0A] | 2.81 ± 0.13 | 2.23 ± 0.21 | 2.85 ± 0.11 | 2.1 ± 0.12
19 | VLKFTFTGEKPIITGST [MED8] | 2.04 ± 0.12 | 2.01 ± 0.082 | 2.18 ± 0.074 | 2.07 ± 0.062
20 | VLKSSVYEYVIASTLGP [RPC82] | 1.23 ± 0.11 | 1.43 ± 0.085 | 1.53 ± 0.07 | 1.43 ± 0.055
21 | VLKTLIEKFEQVPDSLD [RPN6] | 3.37 ± 0.06 | 3.16 ± 0.093 | 3.21 ± 0.081 | 3.21 ± 0.086
22 | VLMERKDERGEGEAKQK [ITC1] |  | 2.94 ± 0.21 | 3.35 ± 0.24 | 3.07 ± 0.22
23 | VLNGQKIVVVRAEALNI [RPL16B] | 3.16 ± 0.11 | 2.47 ± 0.14 | 3.15 ± 0.14 | 3.11 ± 0.11
24 | VLPAATKKKSKFMTNST [ARP9] | 2.71 ± 0.047 | 2.74 ± 0.055 | 2.78 ± 0.046 | 2.96 ± 0.039
25 | VLRTALVHDGLARGLRE [RPS12] | 2.77 ± 0.096 | 2.57 ± 0.17 | 2.79 ± 0.16 | 3.25 ± 0.1

Row | Sequence | protein stability index (san1∆) | protein stability index (doa10∆) | protein stability index (pdr5∆) | protein stability index (ubr1∆)
26 | VLSDDAKKLSSFDFGNE [ARP9] | 2.86 ± 0.062 | 2.93 ± 0.055 | 3.06 ± 0.09 | 3.06 ± 0.056
27 | VLTHESLHRQQQQQQQQ [DLS1] | 2.62 ± 0.052 | 3 ± 0.082 | 2.9 ± 0.079 | 2.85 ± 0.079
28 | VLVASAKGLQTVVVEED [RPL31A] | 2.54 ± 0.087 | 2.19 ± 0.1 | 2.49 ± 0.11 | 2.25 ± 0.094
29 | VMDTIQEQITLYDHWDK [SSN8] | 2.63 ± 0.095 | 3.14 ± 0.12 | 2.96 ± 0.09 | 2.82 ± 0.068
30 | VMLKGIVTALLESDVNI [SRP54] | 1.18 ± 0.14 | 1.3 ± 0.054 | 1.22 ± 0.067 | 1.16 ± 0.066
31 | VMTVPGIDPTRIYTNSF [RPO21] | 2.59 ± 0.08 | 2.44 ± 0.072 | 2.11 ± 0.067 | 2.1 ± 0.056
32 | VMTYKGEVLGITRFGLS [RPO31] | 3.09 ± 0.12 | 3.37 ± 0.16 |  | 3.46 ± 0.29
33 | VMYGTAYKFEEVSKDLI [RPB8] | 3.34 ± 0.044 | 2.9 ± 0.062 | 3.18 ± 0.061 | 3.09 ± 0.051
34 | VMYNGHTGKKLMAQIFF [RPB2] | 3.08 ± 0.14 |  | 2.31 ± 0.16 | 1.27 ± 0.045
35 | VNDEEEHKQLVAEIVQN [RPC82] | 2.56 ± 0.14 | 2.64 ± 0.12 | 2.54 ± 0.19 | 1.66 ± 0.098
36 | VNDNPDIEAGDDDDNNE [DIS3] | 2.73 ± 0.22 | 3.46 ± 0.19 | 3.47 ± 0.14 | 3.33 ± 0.089
37 | VNIEPFNIDDEIKHGVF [LIN1] | 3.45 ± 0.14 | 3.48 ± 0.15 | 3 ± 0.21 | 3.48 ± 0.077
38 | VNNGNIPSQRGTSTTHG [SIR3] | 2.78 ± 0.094 | 2.37 ± 0.16 | 2.85 ± 0.088 | 2.73 ± 0.072
39 | VNNTRRRVYNRVLETTL [BRN1] | 2.87 ± 0.1 | 2.5 ± 0.07 | 2.98 ± 0.094 | 2.65 ± 0.11
40 | VNRLLSVIPLKGRYAPE [RRP4] | 2.33 ± 0.15 | 1.85 ± 0.17 | 1.68 ± 0.087 | 1.86 ± 0.055
41 | VNRSVVVSAVGEARNDI [YAR002W/NUP60] | 2.83 ± 0.041 | 2.62 ± 0.044 | 2.57 ± 0.051 | 2.2 ± 0.037
42 | VPCDRIEKSRLFSEKTI [SNF6] | 2.62 ± 0.096 | 2.58 ± 0.11 | 2.78 ± 0.058 | 2.2 ± 0.044
43 | VPLIKVADAKQLGEWAG [RPS12] |  | 3.17 ± 0.21 | 3.49 ± 0.23 | 3.17 ± 0.12
44 | VPPIASPQQFLRAHTDD [PRE2] | 2.17 ± 0.11 | 2.02 ± 0.068 | 2.72 ± 0.063 | 2.6 ± 0.087
45 | VPPTIAQFQYTLDRNTA [RPL8A] | 1.64 ± 0.095 | 1.83 ± 0.06 | 2.06 ± 0.048 | 1.68 ± 0.044
46 | VPPVENFPVRQWSIEIV [TAF14] | 3.2 ± 0.042 | 3.15 ± 0.064 | 2.55 ± 0.053 | 2.82 ± 0.051
47 | VPRKFKHFIQGGSFGNR [RPL7A] | 3.13 ± 0.12 | 3.36 ± 0.13 | 2.85 ± 0.1 | 2.17 ± 0.055
48 | VPRTADRSASRAVFLFR [RPC82] |  |  | 3.53 ± 0.2 | 3.04 ± 0.17
49 | VPYVVTHDGRTIRYPDP [RPS4A] |  | 3.08 ± 0.1 | 3.16 ± 0.17 | 3.38 ± 0.19
